Assay results from patent US20180291083A1 (IMMATICS BIOTECHNOLOGIES, published 2018).

target: T1, HLA-A*24:02 (human); assay: UV ligand exchange ELISA; exchange yield grade
T1 construct: Peptide-receptive MHC class I monomer made by UV cleavage of a UV-sensitive ligand
Summary of the method: (§1)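 UV-exchange products diluted 100-fold, captured on streptavidin-coated wells, 1 h 37 °C; HRP anti-β2m 2 ug/ml, 1 h 37 °C; TMB, A450. Standards: refolded HLA-A*02:01/MLA-001, 15-500 ng/ml. Yield = β2m signal of stabilised MHC.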

Binder	peptide exchange yield [%]
KYLADLPTL	> 75
TYPQLEGFKF	> 75
SYADNILSF	> 75
LYQDRFDYL	> 75
RFPPTPPLF	> 75
KYSSGFRNI	50 to 75
RFYLLTEHF	50 to 75
IFVARLYYF	> 75
IYFSNTHFF	50 to 75
RYLGKNWSF	> 75
RYLDEINLL	50 to 75
SFQSKATVF	20 to 50
LYSDIGHLL	50 to 75
KYIEYYLVL	> 75
EYNTIKDKF	50 to 75
IFKEHNFSF	> 75

The remaining lines, values ahead:

peptide exchange yield [%]	Binder
> 75	YYLSHLERI
50 to 75	VFLPSEGFNF
50 to 75	TYVENLRLL

target: T2, HLA-A*02:01 (human); assay: UV ligand exchange ELISA; exchange yield grade
T2 construct: Peptide-receptive MHC class I monomer made by UV cleavage of a UV-sensitive ligand
Summary of the method: as §1

peptide exchange yield [%]	Binder
> 75	KLSDNILKL
> 75	AMPDSPAEV
> 75	FLLPKVQSI
> 75	SLADVHIEV
50 to 75	ILAAVETRL
50 to 75	SLMDLQERL
50 to 75	VMLQINPKL
> 75	FLINTNSEL
50 to 75	KLLGYDVHV
> 75	RLIAKEMNI
> 75	SLYVQQLKI
50 to 75	FLLPKVQSIQL

target: T3, human recombinant HLA-B*08:01 with b2m (human); assay: pMHC stability assay at 37 C, mean half-life of b2m on heavy chain, grade (T1/2 >2 h = +; >4 h = ++; >6 h = +++; >10 h = ++++)
T3 construct: Peptide-receptive MHC class I used in the pMHC stability assay by ImmunAware; also called MHC heavy chain and b2m
Procedure: The peptide-MHC stability for HLA-B*08:01 peptides was performed by ImmunAware (Copenhagen, Denmark). The data were obtained using a proximity based, homogenous, real-time assay to measure the dissociation of peptides from HLA class I molecules. First human recombinant HLA-B*08:01 and b2m were expressed in E. coli and purified in a series of liquid chromatography based steps (Ferre et al., 2003; Ostergaard et al., 2001). Afterwards, the stability of a peptide-MHC complex (pMHC) can be determined by measuring the amount of b2m associated with the MHC heavy chain over time at 37° C. (Harndahl et al., 2012). The stability of each pMHC, expressed as the half life of b2m associated with the respective heavy chain, was calculated by fitting the data to a one-phase dissociation equation.

mean half-life (T1/2) of peptide-MHC complex [h]	Binder
2 to 4	FGLARIYSF (synthetic peptide; also called CDK6 peptide) [peptide FGLARIYSF (SEQ ID NO: 110)]
2 to 4	APLLRHWEL (synthetic peptide; also called HLA-DOA peptide) [peptide APLLRHWEL (SEQ ID NO: 112)]
6 to 10	TLKIRAEVL (synthetic peptide; also called RALGPS2 peptide) [peptide TLKIRAEVL (SEQ ID NO: 116)]
6 to 10	FEKEKKESL (synthetic peptide; also called SESN3 peptide) [peptide FEKEKKESL (SEQ ID NO: 118)]
4 to 6	DLRTKEVVF (synthetic peptide; also called SIPA1L3 peptide) [peptide DLRTKEVVF (SEQ ID NO: 119)]
2 to 4	VPPKKHLL (synthetic peptide; also called TRRAP peptide) [peptide VPPKKHLL (SEQ ID NO: 120)]
6 to 10	DANSRTSQL (synthetic peptide; also called MAP3K1 peptide) [peptide DANSRTSQL (SEQ ID NO: 113)]
4 to 6	QAAQRTAL (synthetic peptide; also called AFF3 peptide) [peptide QAAQRTAL (SEQ ID NO: 107)]
4 to 6	ILAIRQNAL (synthetic peptide; also called AGPAT5 peptide) [peptide ILAIRQNAL (SEQ ID NO: 108)]
4 to 6	ELYQRIYAF (synthetic peptide; also called PIK3R6 peptide) [peptide ELYQRIYAF (SEQ ID NO: 115)]
4 to 6	YIKTAKKL (synthetic peptide; also called RALGPS2 peptide) [peptide YIKTAKKL (SEQ ID NO: 117)]
2 to 4	RPKKVNTL (synthetic peptide; also called ZBTB24 peptide) [peptide RPKKVNTL (SEQ ID NO: 121)]
4 to 6	HNALRILTF (synthetic peptide; also called NUP210 peptide) [peptide HNALRILTF (SEQ ID NO: 114)]
2 to 4	LGHVRYVL (synthetic peptide; also called AGPAT5 peptide) [peptide LGHVRYVL (SEQ ID NO: 109)]
